Entries after “also recorded” stand apart in the source; their conditions may differ. Read-outs that look alike come from different tables or passages of the source.
Assays:
E. coli XL1-blue cells = test: Minimum inhibitory concentration (MIC) of cefotaxime on plated bacterial cells; type: cell-based; settings: for MIC: Escherichia coli, XL1BLUECELLS, 24 h, about 1,000 cells per plate, 24 hours at 37° C.
Procedure: The minimum inhibitory concentration (MIC) of cefotaxime on bacterial cells lacking a plasmid is determined by plating 10 μl of a 10^−2 dilution of an overnight bacterial culture (about 1000 cfu) of E. coli XL1-blue cells (Stratagene, San Diego Calif.) on plates with varying levels of cefotaxime (Sigma, St. Louis Mo.), followed by incubation for 24 hours at 37° C.
Growth on cefotaxime is sensitive to the density of cells, and therefore similar numbers of cells needed to be plated on each plate (obtained by plating on plain LB plates). Platings of 1000 cells are consistently performed.
After digestion of the 900 bp product with the terminal restriction enzyme SfiI and agarose gel purification, the 900 bp product is ligated into the vector pUC182Sfi at the unique SfiI site with T4 DNA ligase (BRL, Gaithersburg Md.). The mixture is electroporated into E. coli XL1-blue cells and plated on LB plates with 0.32-0.64 μg/ml of cefotaxime (Sigma, St. Louis Mo.). The cells were grown for up to 24 hours at 37° C. and the resulting colonies are scraped off the plate as a pool and used as the PCR template for the next round of shuffling.
The transformants obtained after each of three rounds of shuffling are plated on increasing levels of cefotaxime. The colonies (>100, to maintain diversity) from the plate with the highest level of cefotaxime are pooled and used as the template for the PCR reaction for the next round.
Colonies obtained at 5-10 μg/ml are used for a third round similar to the first and second rounds except the cells are plated on LB plates having 80-160 μg/ml of cefotaxime. After the third round, colonies are obtained at 80-160 μg/ml, and after replating on increasing concentrations of cefotaxime, colonies could be obtained at up to 320 μg/ml after 24 hours at 37° C.
Growth on cefotaxime is dependent on the cell density, requiring that all the MICs be standardized (in our case to about 1,000 cells per plate). […] The 5 largest colonies grown at 1,280 μg/ml are plated for single colonies twice, and the SfiI inserts are analyzed by restriction mapping of the colony PCR products.

[1] = test system: Gallus gallus FPP synthase (prenyl transferase activity); test: Detection of prenyl transferase activity by luminescence measurement (PPi light assay); type: biochemical; settings: DMAPP and IPP substrates, two hours at room temperature, in vitro synthesized Strep-Tag protein, versus wild type control
Procedure: After gene assembly was completed, the NEB PURExpress in vitro protein synthesis kit was used according to the manufacturer's instructions to produce the variant FPP synthase proteins. After protein synthesis, Strep-Tag magnetic beads (IBA GmbH) were used to isolate the synthesized proteins, after washing the beads with assay buffer (25 mm HEPES pH 7.4, 10 mM MgCl2).
After synthesis, the activity level of the synthesized protein was measured as described in Example 5 by luminescence. Because most mutations are anticipated to be detrimental, it is unlikely for any pool of mutants to have a higher activity than the wild-type protein; pools with higher activity than […] must be deconvoluted to identify individual beneficial mutants.
The residue numbers are reported using the wild-type sequence numbering (SEQ ID NO: 1). The winning pools of nine variants are again resynthesized as discrete mutants and activity measurements are repeated.
This example describes the detection of prenyl transferase activity by luminescence measurement. In this example, an avian FPP synthase (Genbank Accession No. P08836) (SEQ ID NO: 1) was used as the parent prenyl transferase. The parent prenyl transferase was codon-optimized (SEQ ID NO: 21) and inserted into a vector. The nucleic acid sequence of SEQ ID NO: 22 was cloned into the bacterial expression vector pET-21a(+) (FIG. 10) under the control of a T7 promoter. A reaction buffer was produced by mixing 4 μl of 10× reaction buffer (250 mM HEPES pH 7.4, 100 mM MgCl2), 0.2 μl of 1M dithiothreitol, 1 μl of 10 mM DMAPP, 2 μl of 10 mM IPP, and 31.8 μl of water. 1 ng of the Avian FPP synthase (SEQ ID NO: 22) was added to the 39 μl of reaction buffer in a white 96 well microplate. The reaction was sealed with an adhesive plastic cover and allowed to progress for two hours at room temperature.
The PPi light detection and conversion reagents were prepared as instructed by the manufacturer (Lonza Group Ltd., Basel, Switzerland). After the two hour incubation, 40 μl of the conversion reagent, and 40 μl of the detection reagent were added to the wells of the microplate, and the microplate was sealed with an aluminum foil cover. After sixty minutes, the aluminum cover was removed, and the luminescence emitted from each well was measured with a 96 well plate reader in glow luminescence mode. The total luminescence is reported as Relative Luminescence Units (RLU). […] For this study, each pool is a mixture of variants at a single amino acid position.

## CO/N=C(\C(=O)N[C@@H]1C(=O)N2C(C(=O)O)=C(COC(C)=O)CS[C@H]12)c1csc(N)n1 [cefotaxime]
E. coli XL1-blue cells; read-out: MIC of cefotaxime, cells carrying the starting (unshuffled) gene on pUC18 derivative
  MIC: ~0.02 µg/mL
E. coli XL1-blue cells; read-out: MIC of cefotaxime, mutant after the third round of shuffling and replating
  MIC: 320 µg/mL
E. coli XL1-blue cells; at higher cell densities, after third round of shuffling
  cefotaxime level at which growth is obtained: up to 1280 μg/ml
E. coli XL1-blue cells; selected mutant versus starting gene
  fold increased resistance to cefotaxime: 16,000 fold

B1: Thr269Tyr: Gallus gallus FPP synthase (SEQ ID NO: 1) point mutation Thr269Tyr (protein, listed as Gallus gallus)
chain: MHKFTGVNAKFQQPALRNLSPVVVEREREEFVGFFPQIVRDLTEDGIGHPEVGDAVARLKEVLQYNAPGGKCNRGLTVVAAYRELSGPGQKDAESLRCALAVGWCIELFQAFFLVADDIMDQSLTRRGQLCWYKKEGVGLDAINDSFLLESSVYRVLKKYCRQRPYYVHLLELFLQTAYQTELGQMLDLITAPVSKVDLSHFSEERYKAIVKYKTAFYSFYLPVAAAMYMVGIDSKEEHENAKAILLEMGEYFQIQDDYLDCFGDPALYGKVGTDIQDNKCSWLVVQCLQRVTPEQRQLLEDNYGRKEPEKVAKVKELYEAVGMRAAFQQYEESSYRRLQELIEKHSNRLPKEIFLGLAQKIYKRQK
[1]
  prenyl transferase activity measured by luminescence, compared with wild type: increased prenyl transferase activity as compared to the wild type protein; also recorded: activity greater than wild-type
[1]; listed as Thr—269_Tyr
  prenyl transferase activity measured by luminescence, compared with wild type: more activity than the wild type protein sequence

B2: Thr269Asp: Gallus gallus FPP synthase (SEQ ID NO: 1) point mutation Thr269Asp (protein, listed as Gallus gallus)
chain: MHKFTGVNAKFQQPALRNLSPVVVEREREEFVGFFPQIVRDLTEDGIGHPEVGDAVARLKEVLQYNAPGGKCNRGLTVVAAYRELSGPGQKDAESLRCALAVGWCIELFQAFFLVADDIMDQSLTRRGQLCWYKKEGVGLDAINDSFLLESSVYRVLKKYCRQRPYYVHLLELFLQTAYQTELGQMLDLITAPVSKVDLSHFSEERYKAIVKYKTAFYSFYLPVAAAMYMVGIDSKEEHENAKAILLEMGEYFQIQDDYLDCFGDPALDGKVGTDIQDNKCSWLVVQCLQRVTPEQRQLLEDNYGRKEPEKVAKVKELYEAVGMRAAFQQYEESSYRRLQELIEKHSNRLPKEIFLGLAQKIYKRQK
[1]
  prenyl transferase activity measured by luminescence, compared with wild type: increased prenyl transferase activity as compared to the wild type protein; also recorded: activity greater than wild-type
[1]; listed as Thr—269_Asp
  prenyl transferase activity measured by luminescence, compared with wild type: more activity than the wild type protein sequence

B3: Thr269Gln: Gallus gallus FPP synthase (SEQ ID NO: 1) point mutation Thr269Gln (protein, listed as Gallus gallus)
chain: MHKFTGVNAKFQQPALRNLSPVVVEREREEFVGFFPQIVRDLTEDGIGHPEVGDAVARLKEVLQYNAPGGKCNRGLTVVAAYRELSGPGQKDAESLRCALAVGWCIELFQAFFLVADDIMDQSLTRRGQLCWYKKEGVGLDAINDSFLLESSVYRVLKKYCRQRPYYVHLLELFLQTAYQTELGQMLDLITAPVSKVDLSHFSEERYKAIVKYKTAFYSFYLPVAAAMYMVGIDSKEEHENAKAILLEMGEYFQIQDDYLDCFGDPALQGKVGTDIQDNKCSWLVVQCLQRVTPEQRQLLEDNYGRKEPEKVAKVKELYEAVGMRAAFQQYEESSYRRLQELIEKHSNRLPKEIFLGLAQKIYKRQK
[1]
  prenyl transferase activity measured by luminescence, compared with wild type: increased prenyl transferase activity as compared to the wild type protein; also recorded: activity greater than wild-type
[1]; listed as Thr—269_Gln
  prenyl transferase activity measured by luminescence, compared with wild type: more activity than the wild type protein sequence

Reference: US8987433B2, “Variant isoprenoid producing enzymes and uses thereof” (Sapphire Energy, Inc., priority 2009, dated 2015)
